What was measured:
Test in all cases: Octet BLI; biotinylated huDLL3-IgG1 fusion on streptavidin tips; single 50 nM trispecific, conditioned medium
[1] = molecular target: T1, anti-DLL3 trispecific protein with DLL3 binding domain 51G04
T1 construct: trispecific, one chain
Protocol: (§1) Using the conditioned medium with known concentrations of the anti-DLL3 trispecific proteins, the relative binding affinities of the anti-DLL3 trispecific proteins toward human DLL3 protein were measured using a method where biotinylated version of human DLL3 protein were expressed as a human IgG1 fusion protein, and the binding affinity measurement was carried out in an Octet instrument with streptavidin tips.

[2] = molecular target: T2, anti-DLL3 trispecific protein with DLL3 binding domain 42G05
T2 construct: trispecific, one chain
Protocol: as §1

[3] = molecular target: T3, anti-DLL3 trispecific protein with DLL3 binding domain 42A11
T3 construct: trispecific, one chain
Protocol: as §1

[4] = molecular target: T4, anti-DLL3 trispecific protein with DLL3 binding domain 42F10
T4 construct: trispecific, one chain
Protocol: as §1

[5] = molecular target: T5, anti-DLL3 trispecific protein with DLL3 binding domain 51H04
T5 construct: trispecific, one chain
Protocol: as §1

[6] = molecular target: T6, anti-DLL3 trispecific protein with DLL3 binding domain 51F01
T6 construct: trispecific, one chain
Protocol: as §1

[7] = molecular target: T7, anti-DLL3 trispecific protein with DLL3 binding domain 51D01
T7 construct: trispecific, one chain
Protocol: as §1

[8] = molecular target: T8, anti-DLL3 trispecific protein with DLL3 binding domain 51F02
T8 construct: trispecific, one chain
Protocol: as §1

[9] = molecular target: T9, anti-DLL3 trispecific protein with DLL3 binding domain 51G10
T9 construct: trispecific, one chain
Protocol: as §1

[10] = molecular target: T10, anti-DLL3 trispecific protein with DLL3 binding domain 53A05
T10 construct: trispecific, one chain
Protocol: as §1

[11] = molecular target: T11, anti-DLL3 trispecific protein with DLL3 binding domain 42C08
T11 construct: trispecific, one chain
Protocol: as §1

[12] = molecular target: T12, anti-DLL3 trispecific protein with DLL3 binding domain 42E07
T12 construct: trispecific, one chain
Protocol: as §1

[13] = molecular target: T13, anti-DLL3 trispecific protein with DLL3 binding domain 42A07
T13 construct: trispecific, one chain
Protocol: as §1

[14] = molecular target: T14, anti-DLL3 trispecific protein with DLL3 binding domain 51A01
T14 construct: trispecific, one chain
Protocol: as §1

[15] = molecular target: T15, anti-DLL3 trispecific protein with DLL3 binding domain 41G01
T15 construct: trispecific, one chain
Protocol: as §1

[16] = molecular target: T16, anti-DLL3 trispecific protein with DLL3 binding domain 41D01
T16 construct: trispecific, one chain
Protocol: as §1

[17] = molecular target: T17, anti-DLL3 trispecific protein with DLL3 binding domain 51B11
T17 construct: trispecific, one chain
Protocol: as §1

[18] = molecular target: T18, anti-DLL3 trispecific protein with DLL3 binding domain 42H08
T18 construct: trispecific, one chain
Protocol: as §1

[19] = molecular target: T19, anti-DLL3 trispecific protein with DLL3 binding domain 42D08
T19 construct: trispecific, one chain
Protocol: as §1

[20] = molecular target: T20, anti-DLL3 trispecific protein with DLL3 binding domain 42C01
T20 construct: trispecific, one chain
Protocol: as §1

[21] = molecular target: T21, anti-DLL3 trispecific protein with DLL3 binding domain 41D07
T21 construct: trispecific, one chain
Protocol: as §1

[22] = molecular target: T22, anti-DLL3 trispecific protein with DLL3 binding domain 53B06
T22 construct: trispecific, one chain
Protocol: as §1

[23] = molecular target: T23, anti-DLL3 trispecific protein with DLL3 binding domain 51D03
T23 construct: trispecific, one chain
Protocol: as §1

[24] = molecular target: T24, anti-DLL3 trispecific protein with DLL3 binding domain 51E03
T24 construct: trispecific, one chain
Protocol: as §1

[25] = molecular target: T25, anti-DLL3 trispecific protein with DLL3 binding domain 42A03
T25 construct: trispecific, one chain
Protocol: as §1

[26] = molecular target: T26, anti-DLL3 trispecific protein with DLL3 binding domain 54B05
T26 construct: trispecific, one chain
Protocol: as §1

[27] = molecular target: T27, anti-DLL3 trispecific protein with DLL3 binding domain 42A06
T27 construct: trispecific, one chain
Protocol: as §1

[28] = molecular target: T28, anti-DLL3 trispecific protein with DLL3 binding domain 51E05
T28 construct: trispecific, one chain
Protocol: as §1

T22 sequence (chain, as listed by the source): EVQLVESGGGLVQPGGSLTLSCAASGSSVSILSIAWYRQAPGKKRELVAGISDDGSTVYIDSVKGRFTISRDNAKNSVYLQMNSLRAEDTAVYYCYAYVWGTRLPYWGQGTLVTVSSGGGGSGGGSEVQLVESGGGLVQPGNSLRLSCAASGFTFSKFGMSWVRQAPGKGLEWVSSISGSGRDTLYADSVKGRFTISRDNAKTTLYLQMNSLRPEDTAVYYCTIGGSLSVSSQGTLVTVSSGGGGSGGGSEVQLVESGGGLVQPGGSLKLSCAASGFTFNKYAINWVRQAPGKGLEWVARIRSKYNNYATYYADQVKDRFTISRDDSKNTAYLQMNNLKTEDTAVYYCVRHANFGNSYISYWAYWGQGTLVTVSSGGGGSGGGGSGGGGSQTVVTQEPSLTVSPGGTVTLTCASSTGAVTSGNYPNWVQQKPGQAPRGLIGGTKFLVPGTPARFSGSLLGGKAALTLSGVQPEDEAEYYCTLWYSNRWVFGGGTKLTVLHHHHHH
T16 sequence (chain, as listed by the source): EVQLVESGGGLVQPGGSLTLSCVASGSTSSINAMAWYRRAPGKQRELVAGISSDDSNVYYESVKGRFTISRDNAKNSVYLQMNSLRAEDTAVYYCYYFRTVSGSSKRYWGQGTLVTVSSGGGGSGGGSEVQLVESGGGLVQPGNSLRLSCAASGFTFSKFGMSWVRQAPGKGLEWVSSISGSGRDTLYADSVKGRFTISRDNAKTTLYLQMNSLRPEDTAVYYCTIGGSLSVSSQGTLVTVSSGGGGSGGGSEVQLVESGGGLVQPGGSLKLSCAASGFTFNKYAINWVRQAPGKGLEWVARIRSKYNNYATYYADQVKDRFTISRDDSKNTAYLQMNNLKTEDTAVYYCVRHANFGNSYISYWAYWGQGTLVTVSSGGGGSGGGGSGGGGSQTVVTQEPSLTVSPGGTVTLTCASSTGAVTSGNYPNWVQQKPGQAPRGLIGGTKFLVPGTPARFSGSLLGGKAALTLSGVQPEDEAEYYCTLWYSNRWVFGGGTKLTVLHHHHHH
T21 sequence (chain, as listed by the source): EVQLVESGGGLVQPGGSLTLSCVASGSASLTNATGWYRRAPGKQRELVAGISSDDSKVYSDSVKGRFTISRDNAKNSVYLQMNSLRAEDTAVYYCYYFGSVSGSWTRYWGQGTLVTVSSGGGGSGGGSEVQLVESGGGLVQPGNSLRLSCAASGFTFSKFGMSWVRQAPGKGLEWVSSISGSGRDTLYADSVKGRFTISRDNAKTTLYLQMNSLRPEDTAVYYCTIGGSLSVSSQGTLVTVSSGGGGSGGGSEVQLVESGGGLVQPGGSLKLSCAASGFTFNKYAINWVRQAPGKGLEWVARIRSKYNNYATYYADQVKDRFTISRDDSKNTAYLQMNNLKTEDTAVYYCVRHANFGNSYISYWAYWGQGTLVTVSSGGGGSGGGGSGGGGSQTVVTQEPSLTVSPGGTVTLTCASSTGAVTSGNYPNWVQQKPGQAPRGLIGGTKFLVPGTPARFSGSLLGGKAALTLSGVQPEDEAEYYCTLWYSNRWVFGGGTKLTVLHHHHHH
T19 sequence (chain, as listed by the source): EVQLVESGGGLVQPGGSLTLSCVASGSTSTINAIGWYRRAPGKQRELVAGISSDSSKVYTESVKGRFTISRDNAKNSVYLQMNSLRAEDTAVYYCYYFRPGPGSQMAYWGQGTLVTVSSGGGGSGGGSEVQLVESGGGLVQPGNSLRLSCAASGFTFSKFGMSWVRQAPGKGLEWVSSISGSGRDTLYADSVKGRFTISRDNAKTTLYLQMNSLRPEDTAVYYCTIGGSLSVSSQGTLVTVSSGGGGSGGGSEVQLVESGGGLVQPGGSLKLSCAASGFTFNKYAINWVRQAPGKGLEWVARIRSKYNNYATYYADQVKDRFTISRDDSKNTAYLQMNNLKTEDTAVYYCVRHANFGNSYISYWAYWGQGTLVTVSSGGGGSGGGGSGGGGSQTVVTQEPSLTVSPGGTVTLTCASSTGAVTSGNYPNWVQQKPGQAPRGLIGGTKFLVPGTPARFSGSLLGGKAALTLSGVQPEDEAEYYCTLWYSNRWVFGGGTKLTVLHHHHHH
T14 sequence (chain, as listed by the source): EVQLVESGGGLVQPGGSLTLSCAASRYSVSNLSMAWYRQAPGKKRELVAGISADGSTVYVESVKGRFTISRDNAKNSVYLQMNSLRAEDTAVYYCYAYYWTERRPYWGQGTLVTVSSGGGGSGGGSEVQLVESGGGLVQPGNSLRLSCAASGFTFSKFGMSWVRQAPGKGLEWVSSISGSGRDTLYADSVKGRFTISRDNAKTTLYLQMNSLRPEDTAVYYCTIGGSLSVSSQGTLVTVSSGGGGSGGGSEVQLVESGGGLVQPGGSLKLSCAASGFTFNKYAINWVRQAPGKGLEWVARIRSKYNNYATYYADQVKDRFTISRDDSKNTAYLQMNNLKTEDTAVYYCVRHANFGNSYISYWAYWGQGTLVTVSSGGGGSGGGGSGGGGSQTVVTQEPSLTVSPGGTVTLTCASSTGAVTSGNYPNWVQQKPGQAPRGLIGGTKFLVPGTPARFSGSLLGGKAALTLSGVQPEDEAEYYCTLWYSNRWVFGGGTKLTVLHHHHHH
T26 sequence (chain, as listed by the source): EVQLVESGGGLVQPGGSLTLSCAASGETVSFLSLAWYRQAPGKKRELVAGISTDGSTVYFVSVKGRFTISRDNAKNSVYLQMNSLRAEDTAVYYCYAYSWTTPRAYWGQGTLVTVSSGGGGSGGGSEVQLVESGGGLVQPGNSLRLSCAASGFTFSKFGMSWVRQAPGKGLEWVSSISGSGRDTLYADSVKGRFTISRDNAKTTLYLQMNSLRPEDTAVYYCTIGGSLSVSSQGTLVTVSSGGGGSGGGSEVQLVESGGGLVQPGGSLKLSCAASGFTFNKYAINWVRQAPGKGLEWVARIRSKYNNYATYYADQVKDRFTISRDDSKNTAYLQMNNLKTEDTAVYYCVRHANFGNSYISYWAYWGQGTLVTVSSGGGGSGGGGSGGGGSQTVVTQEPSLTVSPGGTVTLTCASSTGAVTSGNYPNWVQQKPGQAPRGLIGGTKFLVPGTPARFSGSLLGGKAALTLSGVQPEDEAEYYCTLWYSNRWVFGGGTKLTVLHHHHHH
T5 sequence (chain, as listed by the source): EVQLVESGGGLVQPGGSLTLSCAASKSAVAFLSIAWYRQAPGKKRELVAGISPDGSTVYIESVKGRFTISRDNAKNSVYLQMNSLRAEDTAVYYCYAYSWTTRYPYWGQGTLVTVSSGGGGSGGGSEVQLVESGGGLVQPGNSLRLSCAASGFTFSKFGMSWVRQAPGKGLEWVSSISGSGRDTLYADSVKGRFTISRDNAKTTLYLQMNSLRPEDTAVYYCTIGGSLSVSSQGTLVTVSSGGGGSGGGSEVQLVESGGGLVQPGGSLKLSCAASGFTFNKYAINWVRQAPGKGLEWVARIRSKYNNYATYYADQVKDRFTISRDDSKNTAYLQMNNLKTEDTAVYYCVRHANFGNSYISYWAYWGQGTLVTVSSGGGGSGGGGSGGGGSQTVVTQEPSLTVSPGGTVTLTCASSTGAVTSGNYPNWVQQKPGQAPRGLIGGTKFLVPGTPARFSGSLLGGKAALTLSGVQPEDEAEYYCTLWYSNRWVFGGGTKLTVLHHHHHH
T23 sequence (chain, as listed by the source): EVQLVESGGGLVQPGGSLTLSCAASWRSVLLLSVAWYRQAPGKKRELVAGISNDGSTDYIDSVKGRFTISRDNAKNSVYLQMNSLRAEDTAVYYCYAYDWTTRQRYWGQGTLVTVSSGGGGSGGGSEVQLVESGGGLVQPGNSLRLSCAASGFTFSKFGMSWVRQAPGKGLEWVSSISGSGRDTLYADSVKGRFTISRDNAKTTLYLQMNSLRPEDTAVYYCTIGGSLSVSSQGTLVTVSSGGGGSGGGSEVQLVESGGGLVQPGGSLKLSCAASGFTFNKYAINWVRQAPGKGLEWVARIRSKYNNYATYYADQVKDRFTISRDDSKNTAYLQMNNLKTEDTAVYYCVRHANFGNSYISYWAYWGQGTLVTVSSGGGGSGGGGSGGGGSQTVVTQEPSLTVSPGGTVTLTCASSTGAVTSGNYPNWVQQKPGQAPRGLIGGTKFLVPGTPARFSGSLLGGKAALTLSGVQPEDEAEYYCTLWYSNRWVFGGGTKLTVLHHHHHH
T7 sequence (chain, as listed by the source): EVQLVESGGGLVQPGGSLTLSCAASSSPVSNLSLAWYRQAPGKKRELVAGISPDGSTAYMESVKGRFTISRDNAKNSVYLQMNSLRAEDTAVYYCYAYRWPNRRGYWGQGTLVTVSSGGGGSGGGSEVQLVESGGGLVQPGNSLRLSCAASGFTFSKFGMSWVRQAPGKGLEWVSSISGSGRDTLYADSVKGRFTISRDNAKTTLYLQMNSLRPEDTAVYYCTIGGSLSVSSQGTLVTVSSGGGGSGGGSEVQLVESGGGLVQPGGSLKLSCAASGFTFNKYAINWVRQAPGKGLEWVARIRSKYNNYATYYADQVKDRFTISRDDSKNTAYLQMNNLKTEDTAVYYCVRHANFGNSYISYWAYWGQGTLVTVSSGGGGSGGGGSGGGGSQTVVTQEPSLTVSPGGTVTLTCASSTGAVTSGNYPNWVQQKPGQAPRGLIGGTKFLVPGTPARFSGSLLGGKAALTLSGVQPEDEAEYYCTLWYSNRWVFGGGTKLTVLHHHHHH

- Kd [1]: 21 nM
- Kd [2]: 3.4 nM
- Kd [3]: 2 nM
- Kd [4]: 17 nM
- Kd [5]: 1 nM
- Kd [6]: 16 nM
- Kd [7]: 7.9 nM
- Kd [8]: 2.4 nM
- Kd [9]: 0.6 nM
- Kd [10]: 0.31 nM
- Kd [11]: 1.8 nM
- Kd [12]: 3.9 nM
- Kd [13]: 3.2 nM
- Kd [14]: 0.92 nM
- Kd [15]: 4 nM
- Kd [16]: 1.4 nM
- Kd [17]: 2.4 nM
- Kd [18]: 2.1 nM
- Kd [19]: 1.3 nM
- Kd [20]: 3.6 nM
- Kd [21]: 34 nM
- Kd [22]: 0.71 nM
- Kd [23]: 3.3 nM
- Kd [24]: 7.2 nM
- Kd [25]: 1.9 nM
- Kd [26]: 0.76 nM
- Kd [27]: 1 nM
- Kd [28]: 0.97 nM
B1: biotinylated human DLL3 protein expressed as a human IgG1 fusion protein (Fc fusion, not shown: a dimerising Fc or GST)
chain: AGVFELQIHSFGPGPGPGAPRSPCSARLPCRLFFRVCLKPGLSEEAAESPCALGAALSARGPVYTEQPGAPAPDLPLPDGLLQVPFRDAWPGTFSFIIETWREELGDQIGGPAWSLLARVAGRRRLAAGGPWARDIQRAGAWELRFSYRARCEPPAVGTACTRLCRPRSAPSRCGPGLRPCAPLEDECEAPLVCRAGCSPEHGFCEQPGECRCLEGWTGPLCTVPVSTSSCLSPRGPSSATTGCLVPGPGPCDGNPCANGGSCSETPRSFECTCPRGFYGLRCEVSGVTCADGPCFNGGLCVGGADPDSAYICHCPPGFQGSNCEKRVDRCSLQPCRNGGLCLDLGHALRCRCRAGFAGPRCEHDLDDCAGRACANGGTCVEGGGAHRCSCALGFGGRDCRERADPCAARPCAHGGRCYAHFSGLVCACAPGYMGARCEFPVHPDGASALPAAPPGLRPGDPQRYL
modifications: biotinylated
